Results: patent US20140087995A1 (published 2014)
Where a chain is given by its changes, count along the chain named. Blank lines part the entries; values can stand above or below the binder they belong to. Numbered stars: 1 amine (or outer) side, 2 acyl side, 3 side chain; on linkers, the order of the positions; unused ones are H or OH. Bridge positions count the residues as written; N and C are the ends. Side chains are listed from the residue outwards. Ends that are not written are not given here. * marks the point of attachment. C20 diacid = O=C(O)CCCCCCCCCCCCCCCCCCC(=O)*; γGlu = O=C(O)[C@H](CCC(=O)[*:2])N[*:1]; AEEA = NCCOCCOCC(=O)O

Assays:
[1] = target: T1, human calcitonin receptor (human, UniProt P30988 25-474); test: cell-based or functional assay
T1 sequence (looked up): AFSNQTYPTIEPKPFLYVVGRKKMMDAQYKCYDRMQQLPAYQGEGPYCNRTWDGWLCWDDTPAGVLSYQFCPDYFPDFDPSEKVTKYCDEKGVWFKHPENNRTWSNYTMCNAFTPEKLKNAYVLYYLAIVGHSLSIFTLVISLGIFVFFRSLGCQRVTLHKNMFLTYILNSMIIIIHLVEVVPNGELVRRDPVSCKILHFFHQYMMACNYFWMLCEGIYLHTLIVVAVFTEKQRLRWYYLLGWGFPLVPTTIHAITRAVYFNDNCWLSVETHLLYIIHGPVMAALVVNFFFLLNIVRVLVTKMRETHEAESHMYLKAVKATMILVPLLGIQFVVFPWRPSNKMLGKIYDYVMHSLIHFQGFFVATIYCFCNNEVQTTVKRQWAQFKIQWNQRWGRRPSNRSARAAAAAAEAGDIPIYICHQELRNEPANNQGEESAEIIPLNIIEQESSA

rat calcitonin receptor = target: T2, rat calcitonin receptor (rat, UniProt P32214 25-516); test: SPA competition with 125I-calcitonin, membranes of BHK cells with rat calcitonin receptor (Assay VIII)
T2 construct: whole, on cells; membranes of transiently transfected BHK tk'ts 13 cells (Assay VIII); also called rCTR; rat calcitonin (a) receptor
T2 sequence (looked up): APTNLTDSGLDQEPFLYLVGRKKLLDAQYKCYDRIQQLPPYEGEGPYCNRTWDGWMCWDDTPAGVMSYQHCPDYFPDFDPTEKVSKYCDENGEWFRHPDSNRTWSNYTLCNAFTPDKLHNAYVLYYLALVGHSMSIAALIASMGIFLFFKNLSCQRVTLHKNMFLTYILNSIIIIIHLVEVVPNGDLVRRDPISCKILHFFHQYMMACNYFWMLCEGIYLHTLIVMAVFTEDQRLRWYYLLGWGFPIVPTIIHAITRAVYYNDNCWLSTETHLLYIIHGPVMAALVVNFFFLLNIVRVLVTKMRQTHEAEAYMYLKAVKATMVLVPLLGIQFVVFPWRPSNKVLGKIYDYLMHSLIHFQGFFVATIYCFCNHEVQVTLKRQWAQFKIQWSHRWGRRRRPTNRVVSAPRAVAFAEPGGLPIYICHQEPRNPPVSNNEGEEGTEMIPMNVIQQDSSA

[2] = target: T3, rat amylin receptor (rat calcitonin receptor + rat RAMP 3) (rat, UniProt P32214 25-516; Q9JJ73 23-147); test: SPA competition with 125I-rat amylin, membranes of BHK cells with rat calcitonin receptor + rat RAMP3 (Assay VI)
T3 construct: whole, on cells; membranes of transiently transfected BHK tk'ts 13 cells (Assay VI); also called rAmylin-R; rat amylin 3(a) receptor
T3 sequence (looked up) 1: T2 sequence (looked up)
T3 sequence (looked up) 2: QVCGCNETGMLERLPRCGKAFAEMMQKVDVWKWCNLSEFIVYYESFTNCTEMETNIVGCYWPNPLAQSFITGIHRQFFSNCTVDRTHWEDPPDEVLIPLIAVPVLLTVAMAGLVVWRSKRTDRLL

- hCTR funct. EC50 [1]: 10 nM
B1: N^α1-[2-[2-[2-[[2-[2-[2-[[(4S)-4-carboxy-4-(19-carboxynonadecanoylamino)butanoyl]amino]ethoxy]ethoxy]acetyl]amino]ethoxy]ethoxy]acetyl]-[Arg17,Pro21,Pro27]-h-am … (peptide)
peptide: KCNTATCATQRLANFLRHSSPNFGAIPSSTNVGSNTY
modifications: alpha-amino group of N-terminal Lys1 acylated with C20 diacid via gGlu-2xOEG linker; disulfide Cys2-Cys7; C-terminal amide
notes: h-amylin derivative; disulfide bridge and C-terminal amide as told for human amylin; also called compound 24

- hCTR funct. EC50 [1]: 2.21 nM
B2: N^α1-[(4S)-4-carboxy-4-(19-carboxynonadecanoylamino)butanoyl]-[Glu14,Arg17,Pro21,Pro27,Arg35]-h-amylin (peptide)
peptide: {C20 diacid-γGlu}-KCNTATCATQRLAEFLRHSSPNFGAIPSSTNVGSRTY-NH2
modifications: disulfide 2-7
SMILES: CC[C@H](C)[C@H](NC(=O)[C@H](C)NC(=O)CNC(=O)[C@H](Cc1ccccc1)NC(=O)[C@H](CC(N)=O)NC(=O)[C@@H]1CCCN1C(=O)[C@H](CO)NC(=O)[C@H](CO)NC(=O)[C@H](Cc1c[nH]cn1)NC(=O)[C@H](CCCNC(=N)N)NC(=O)[C@H](CC(C)C)NC(=O)[C@H](Cc1ccccc1)NC(=O)[C@H](CCC(=O)O)NC(=O)[C@H](C)NC(=O)[C@H](CC(C)C)NC(=O)[C@H](CCCNC(=N)N)NC(=O)[C@H](CCC(N)=O)NC(=O)[C@@H](NC(=O)[C@H](C)NC(=O)[C@@H]1CSSC[C@H](NC(=O)[C@H](CCCCN)NC(=O)CC[C@H](NC(=O)CCCCCCCCCCCCCCCCCCC(=O)O)C(=O)O)C(=O)N[C@@H](CC(N)=O)C(=O)N[C@@H]([C@@H](C)O)C(=O)N[C@@H](C)C(=O)N[C@@H]([C@@H](C)O)C(=O)N1)[C@@H](C)O)C(=O)N1CCC[C@H]1C(=O)N[C@@H](CO)C(=O)N[C@@H](CO)C(=O)N[C@H](C(=O)N[C@@H](CC(N)=O)C(=O)N[C@H](C(=O)NCC(=O)N[C@@H](CO)C(=O)N[C@@H](CCCNC(=N)N)C(=O)N[C@H](C(=O)N[C@@H](Cc1ccc(O)cc1)C(N)=O)[C@@H](C)O)C(C)C)[C@@H](C)O
notes: h-amylin derivative; disulfide bridge and C-terminal amide as told for human amylin; also called compound 16

- hCTR funct. EC50 [1]: 2.62 nM
B3: N^α1-[(4S)-4-carboxy-4-(19-carboxynonadecanoylamino)butanoyl]-[Arg17,Pro21,Pro27,Lys35]-h-amylin (peptide)
peptide: B1 peptide with N35K
modifications: alpha-amino group of N-terminal Lys1 acylated with C20 diacid via gGlu linker; disulfide Cys2-Cys7; C-terminal amide
notes: h-amylin derivative; disulfide bridge and C-terminal amide as told for human amylin; also called compound 34

- hCTR funct. EC50 [1]: 3.02 nM
B4: N^α1-[(4S)-4-carboxy-4-(19-carboxynonadecanoylamino)butanoyl]-[Arg17,Pro21,Pro27,Glu35]-h-amylin (peptide)
peptide: B1 peptide with N35E
modifications: alpha-amino group of N-terminal Lys1 acylated with C20 diacid via gGlu linker; disulfide Cys2-Cys7; C-terminal amide
notes: h-amylin derivative; disulfide bridge and C-terminal amide as told for human amylin; also called compound 23

- hCTR funct. EC50 [1]: 2.35 nM
B5: N^α1-[(4S)-4-carboxy-4-(19-carboxynonadecanoylamino)butanoyl]-[Glu14,Arg17,Pro21,Pro27,His34]-h-amylin (peptide)
peptide: {C20 diacid-γGlu}-KCNTATCATQRLAEFLRHSSPNFGAIPSSTNVGHNTY-NH2
modifications: disulfide 2-7
SMILES: CC[C@H](C)[C@H](NC(=O)[C@H](C)NC(=O)CNC(=O)[C@H](Cc1ccccc1)NC(=O)[C@H](CC(N)=O)NC(=O)[C@@H]1CCCN1C(=O)[C@H](CO)NC(=O)[C@H](CO)NC(=O)[C@H](Cc1c[nH]cn1)NC(=O)[C@H](CCCNC(=N)N)NC(=O)[C@H](CC(C)C)NC(=O)[C@H](Cc1ccccc1)NC(=O)[C@H](CCC(=O)O)NC(=O)[C@H](C)NC(=O)[C@H](CC(C)C)NC(=O)[C@H](CCCNC(=N)N)NC(=O)[C@H](CCC(N)=O)NC(=O)[C@@H](NC(=O)[C@H](C)NC(=O)[C@@H]1CSSC[C@H](NC(=O)[C@H](CCCCN)NC(=O)CC[C@H](NC(=O)CCCCCCCCCCCCCCCCCCC(=O)O)C(=O)O)C(=O)N[C@@H](CC(N)=O)C(=O)N[C@@H]([C@@H](C)O)C(=O)N[C@@H](C)C(=O)N[C@@H]([C@@H](C)O)C(=O)N1)[C@@H](C)O)C(=O)N1CCC[C@H]1C(=O)N[C@@H](CO)C(=O)N[C@@H](CO)C(=O)N[C@H](C(=O)N[C@@H](CC(N)=O)C(=O)N[C@H](C(=O)NCC(=O)N[C@@H](Cc1c[nH]cn1)C(=O)N[C@@H](CC(N)=O)C(=O)N[C@H](C(=O)N[C@@H](Cc1ccc(O)cc1)C(N)=O)[C@@H](C)O)C(C)C)[C@@H](C)O
notes: h-amylin derivative; disulfide bridge and C-terminal amide as told for human amylin; also called compound 17

- hCTR funct. EC50 [1]: 5.32 nM
B6: N^α1-[2-[2-[2-[[2-[2-[2-[[(4S)-4-carboxy-4-(19-carboxynonadecanoylamino)butanoyl]amino]ethoxy]ethoxy]acetyl]amino]ethoxy]ethoxy]acetyl]-[Glu14,Arg17,Pro21,Pro27 … (peptide)
peptide: B1 peptide with N14E
modifications: alpha-amino group of N-terminal Lys1 acylated with C20 diacid via gGlu-2xOEG linker; disulfide Cys2-Cys7; C-terminal amide
notes: h-amylin derivative; disulfide bridge and C-terminal amide as told for human amylin; also called compound 19

- hCTR funct. EC50 [1]: 2.68 nM
B7: N^α1-[(4S)-4-carboxy-4-(19-carboxynonadecanoylamino)butanoyl]-[Arg17,Pro21,Pro27,His34]-h-amylin (peptide)
peptide: B1 peptide with S34H
modifications: alpha-amino group of N-terminal Lys1 acylated with C20 diacid via gGlu linker; disulfide Cys2-Cys7; C-terminal amide
notes: h-amylin derivative; disulfide bridge and C-terminal amide as told for human amylin; also called compound 40

- hCTR funct. EC50 [1]: 2.52 nM
B8: N^α1-[(4S)-4-carboxy-4-(19-carboxynonadecanoylamino)butanoyl]-[Arg17,Pro21,Pro27,Arg34]-h-amylin (peptide)
peptide: B1 peptide with S34R
modifications: alpha-amino group of N-terminal Lys1 acylated with C20 diacid via gGlu linker; disulfide Cys2-Cys7; C-terminal amide
notes: h-amylin derivative; disulfide bridge and C-terminal amide as told for human amylin; also called compound 39

- hCTR funct. EC50 [1]: 0.857 nM
B9: N^α1-[(4S)-4-carboxy-4-(19-carboxynonadecanoylamino)butanoyl]-[Arg17,Pro21,Pro27,Pro34,Glu35]-h-amylin (peptide)
peptide: {C20 diacid-γGlu}-KCNTATCATQRLANFLRHSSPNFGAIPSSTNVGPETY-NH2
modifications: disulfide 2-7
SMILES: CC[C@H](C)[C@H](NC(=O)[C@H](C)NC(=O)CNC(=O)[C@H](Cc1ccccc1)NC(=O)[C@H](CC(N)=O)NC(=O)[C@@H]1CCCN1C(=O)[C@H](CO)NC(=O)[C@H](CO)NC(=O)[C@H](Cc1c[nH]cn1)NC(=O)[C@H](CCCNC(=N)N)NC(=O)[C@H](CC(C)C)NC(=O)[C@H](Cc1ccccc1)NC(=O)[C@H](CC(N)=O)NC(=O)[C@H](C)NC(=O)[C@H](CC(C)C)NC(=O)[C@H](CCCNC(=N)N)NC(=O)[C@H](CCC(N)=O)NC(=O)[C@@H](NC(=O)[C@H](C)NC(=O)[C@@H]1CSSC[C@H](NC(=O)[C@H](CCCCN)NC(=O)CC[C@H](NC(=O)CCCCCCCCCCCCCCCCCCC(=O)O)C(=O)O)C(=O)N[C@@H](CC(N)=O)C(=O)N[C@@H]([C@@H](C)O)C(=O)N[C@@H](C)C(=O)N[C@@H]([C@@H](C)O)C(=O)N1)[C@@H](C)O)C(=O)N1CCC[C@H]1C(=O)N[C@@H](CO)C(=O)N[C@@H](CO)C(=O)N[C@H](C(=O)N[C@@H](CC(N)=O)C(=O)N[C@H](C(=O)NCC(=O)N1CCC[C@H]1C(=O)N[C@@H](CCC(=O)O)C(=O)N[C@H](C(=O)N[C@@H](Cc1ccc(O)cc1)C(N)=O)[C@@H](C)O)C(C)C)[C@@H](C)O
notes: h-amylin derivative; disulfide bridge and C-terminal amide as told for human amylin; also called compound 29

- hCTR funct. EC50 [1]: 2.03 nM
B10: N^α1-[(4S)-4-carboxy-4-(19-carboxynonadecanoylamino)butanoyl]-[Arg17,Pro21,Pro27,Pro31,Glu35]-h-amylin (peptide)
peptide: {C20 diacid-γGlu}-KCNTATCATQRLANFLRHSSPNFGAIPSSTPVGSETY-NH2
modifications: disulfide 2-7
SMILES: CC[C@H](C)[C@H](NC(=O)[C@H](C)NC(=O)CNC(=O)[C@H](Cc1ccccc1)NC(=O)[C@H](CC(N)=O)NC(=O)[C@@H]1CCCN1C(=O)[C@H](CO)NC(=O)[C@H](CO)NC(=O)[C@H](Cc1c[nH]cn1)NC(=O)[C@H](CCCNC(=N)N)NC(=O)[C@H](CC(C)C)NC(=O)[C@H](Cc1ccccc1)NC(=O)[C@H](CC(N)=O)NC(=O)[C@H](C)NC(=O)[C@H](CC(C)C)NC(=O)[C@H](CCCNC(=N)N)NC(=O)[C@H](CCC(N)=O)NC(=O)[C@@H](NC(=O)[C@H](C)NC(=O)[C@@H]1CSSC[C@H](NC(=O)[C@H](CCCCN)NC(=O)CC[C@H](NC(=O)CCCCCCCCCCCCCCCCCCC(=O)O)C(=O)O)C(=O)N[C@@H](CC(N)=O)C(=O)N[C@@H]([C@@H](C)O)C(=O)N[C@@H](C)C(=O)N[C@@H]([C@@H](C)O)C(=O)N1)[C@@H](C)O)C(=O)N1CCC[C@H]1C(=O)N[C@@H](CO)C(=O)N[C@@H](CO)C(=O)N[C@H](C(=O)N1CCC[C@H]1C(=O)N[C@H](C(=O)NCC(=O)N[C@@H](CO)C(=O)N[C@@H](CCC(=O)O)C(=O)N[C@H](C(=O)N[C@@H](Cc1ccc(O)cc1)C(N)=O)[C@@H](C)O)C(C)C)[C@@H](C)O
notes: h-amylin derivative; disulfide bridge and C-terminal amide as told for human amylin; also called compound 28

- IC50 (rat calcitonin receptor): 38 nM
- IC50 [2]: 0.383 nM
B11: N^ε1-[2-[2-[2-[[(4S)-4-carboxy-4-(19-carboxynonadecanoylamino)butanoyl]amino]ethoxy]ethoxy]acetyl]-[Arg17,Pro21,Pro27,Arg35]-h-amylin (peptide)
peptide: K([AEEA-γGlu-C20 diacid])CNTATCATQRLANFLRHSSPNFGAIPSSTNVGSRTY-NH2
modifications: disulfide 2-7 (inferred)
notes: analogue of human amylin; also called compound 38

- IC50 (rat calcitonin receptor): 159 nM
- IC50 [2]: 0.335 nM
B12: N^ε1-[(4S)-4-carboxy-4-[[(4S)-4-carboxy-4-(19-carboxynonadecanoylamino)butanoyl]amino]butanoyl]-[Asp14,Arg17,Pro21,Pro27,Arg35]-h-amylin (peptide)
peptide: K([γGlu-γGlu-C20 diacid])CNTATCATQRLADFLRHSSPNFGAIPSSTNVGSRTY-NH2
modifications: disulfide 2-7 (inferred)
notes: analogue of human amylin; also called compound 52
